Data set [1] concerns the target T1, FMRP S500D (UniProt Q06787 1-632, S500D). Description: fluorescence titration (2AP); 150 mM KCl, 1 uM BSA; Fluorescence: 10 mM cacodylic acid pH 6.5, 150 mM KCl, 1 uM BSA, 200 nM RNA; EMSA: 0.5x TBE native gels at 4 C (5 mM KCl for PSD-95 RNAs), incubation at room te. On the technique in general: A gel shift assay detects complexes by their altered migration in electrophoresis.

Data set [2] has as its target FMRP RGG peptide (UniProt Q06787). The data set can be described thus: EMSA; 5 mM KCl; Fluorescence: 10 mM cacodylic acid pH 6.5, 150 mM KCl, 1 uM BSA, 200 nM RNA; EMSA: 0.5x TBE native gels at 4 C (5 mM KCl for PSD-95 RNAs), incubation at room temperature 15-20 min; pull-down: RIPA (150 mM NaCl, 50 mM Tris pH 8.0), room temperature.
The target in data set [3] is T1, FMRP S500D. The data set can be described thus: EMSA; 200 nM RNA, up to 1:2; Fluorescence: 10 mM cacodylic acid pH 6.5, 150 mM KCl, 1 uM BSA, 200 nM RNA; EMSA: 0.5x TBE native gels at 4 C (5 mM KCl for PSD-95 RNAs), incubation at room te.
The target in data set [4] is T1, FMRP S500D. The data set can be described thus: EMSA; 200 nM RNA, similar to miR-125a; Fluorescence: 10 mM cacodylic acid pH 6.5, 150 mM KCl, 1 uM BSA, 200 nM RNA; EMSA: 0.5x TBE native gels at 4 C (5 mM KCl for PSD-95 RNAs), incubation at room te.
Data set [5] concerns the target FMRP RGG peptide (UniProt Q06787). Description: EMSA; 200 nM RNA, up to 1:2; Fluorescence: 10 mM cacodylic acid pH 6.5, 150 mM KCl, 1 uM BSA, 200 nM RNA; EMSA: 0.5x TBE native gels at 4 C (5 mM KCl for PSD-95 RNAs), incubation at room temperature 15-20 min; pull-down: RIPA (150 mM NaCl, 50 mM Tris pH 8.0), room temperature.
Data set [6] has as its target T1, FMRP S500D. Description: EMSA; 200 nM RNA, complete at 1:2; Kd estimated low nM; Fluorescence: 10 mM cacodylic acid pH 6.5, 150 mM KCl, 1 uM BSA, 200 nM RNA; EMSA: 0.5x TBE native gels at 4 C (5 mM KCl for PSD-95 RNAs), incubation at room te.

Data on ten molecules can be found in publication PMC6529005, “FMRP - G-quadruplex mRNA - miR-125a interactions: Implications for miR-125a mediated translation regulation of PSD-95 mRNA”.

Usually Kd stands for the concentration at which binding is half-saturated. A higher Kd goes with weaker binding. The molecule GGGAGGGAGGGUGGG (structured_RNA, A4 replaced by 2-aminopurine) [PSD-95 Q2 4-2AP] had a Kd in data set [1] of 100 nM.

B1: PSD-95 Q1-Q2 (structured_RNA)
RNA: GGGAAAAGGGAGGGAUGGGUCUAGGGAGUGGGAAAUGCGGGAGGGAGGGUGGG
Regarding B1, the binding result in data set [2] (two G-quadruplexes) is recorded as “binds”.

Turning to GGGAGGGAGGGUGGG (structured_RNA) [PSD-95 Q2], the binding result in data set [2] (G-quadruplex) is “binds”.

On to UGGAGUGUGACAAUGGUGUUUG (ssRNA) [miR-122], for which the binding result in data set [3] was “no binding”.

Turning to UCCCUGAGACCCUAACUUGUGA (ssRNA) [miR-125b], the binding result in data set [4] is on record as “binds”.

Regarding UCCCUGAGACCGUUUAACCUGUGA (ssRNA) [miR-125a-Mut2], the binding result in data set [4] was “binds”.

In the case of UCCCUGAGACCCUUUAACCUGUGA (ssRNA) [miR-125a], the binding result is reported as “no binding” in data set [5] and “binds” in data set [6].

On to UAGGUAGUUUCAUGUUGUUGGG (ssRNA) [miR-196a-1], for which the binding result in data set [3] is reported as “binds”.

In the case of GGGAAAAGGGAGGGAUGGG (structured_RNA, A11 replaced by 2-aminopurine) [PSD-95 Q11234 11-2AP], the affinity in data set [1], expressed as Kd, was 66 nM.

Regarding GGGAAAAGGGAGGGAUGGGUCUAGGG (structured_RNA) [PSD-95 Q1], the binding result in data set [2] (G-quadruplex, multiple conformations) is “binds”.
